According to the supplement of paper PMC9942255:
Where “and” joins values, the source holds several entries; their conditions need not be identical. Equal values may be shown once.

Test system: Bacillus subtilis DB104 (SP-AmyQ fusion secretion)
Assay: AmyQ secretion efficiency, weighted average sort bin (1 = best secretion, 10 = worst) (bin number (weighted average, 1-10)); higher = lower secretion efficiency
Procedure, shortened: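 Occupied alginate beads were sorted by large-particle flow cytometry into 10 equally populated bins according to green/red fluorescence ratio. Each bead (~65 nL) held fluorescein-starch and about 0.3 cells of a B. subtilis DB104 library expressing mature AmyQ fused to designed signal peptides from the amyE locus, and beads were grown about 13 h at room temperature and stained with nile red before sorting. Bin amplicons were Illumina-sequenced, and the secretion score is the read-frequency-weighted average bin number, normalised to beads per bin, excluding low-abundance sequences.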

Sequence	AmyQ secretion efficiency
MKKIWIGMLAAAVLLLRKPKVSLADAA	7.91
MKKWMITIAMSTYTYYTLFVFISPLKSHKT	5.78
MKKRLIGFLVLVPALIMIEANKK	6.53
MLTKRLLTIYIMLLGLIAWFPGAAQCEEK	2.82
MTMLRKIIGWILLLCIIPLFAFTVIGSGKEV	6.78
MTKLKMLSMLTVMIASLFIFSSQMLAVQY	4.6
MKRITINIRRKKIAAAVISLTGTAEAAEK	6.82
MSSGTVIASILLSFLSVLSGGHHESKAFPV	6.28
MKLWMRKTLVVLFTIVTFGLVSPPAALMMDKP	2.97
MKKWMAGLFLAAAVLLCLKRRRKRIQGASS	6.89
MKNMSCKLVVSVTLFFSFLTIGPLQHAQNS	5.15
MFNRLFRVCFLAALIMAFTLPNSVYAQPK	1.86
MRPVFPLILSAVLFLSCFFGARQTESFASASKR	4.97
MKWMCSICCAAVLLAGGAGQAEAV	3.36
MRPQFPLILSAVLFLSCFFGARQTEASASKR	4.77
MTGGSAVLLSLIMLIAGFLISFSFQM	7.63
MTMLRKIIGWILLLCIIDDDEEDVIASGKEV	5.3
MMTTIFAFLTGLMMFGTITAASASPD	4.48
MKSKGSIMACLILFSFTITTFINTETASAFSN	4.22
MKLAKRVSALTPSTTLAITFKAKEL	6.49
MKKAAAVLLSLGLVFFLLTSGFSYGAGHVAEAKTK	3.03
MKSKGSIMACLILFSFTITTFINEISAFSN	6.8

Sequence	AmyQ secretion efficiency
MKWMCKRCCRRKRLAGGAAQAEAV	7.06
MTKKAWFLPLVCVLLISGWLAPAASASQQTT	2.02
MTKKAWFLPLVCVLLISGWLAPAASGSAQTT	2.23
MKKWMITIAMSYTSTKRYFVFISPLKSHKT	7.55
MKKAFLVFLSVVLVTTVFLVKQQESVAQVKQL	3.34
MRSKKLWISLLFALTLIFTMAFSNMSAQHAGK	6.69
MKKLLAAGIIGLLTVSIASPSFAASD	2.22
MKLKKRVSMFKRRRTMCGGLFVTPAKAVKT	6.84
MAIIIAIIAAVIVIAALITFNVRNGSPG	7.66
MRPVFPLILSAVLFLSCFFGARQTERSASKR	6.76
MKKSQYFRKRRCKRVLFSVHPIAAAAADS	7.95
MKRSISRKITCLLITLLTMGGMIASPASAAGT	2.01
MKKWIYTVLVLSIAGIGGFSVHAASS	6.39
MFKKHTISLLIIFLLASAVLAKPEEAHTV	4.88
MKFVKRRGSRGQTTSTLSVTSLFALQPSAKAAEH	5.84
MPYLKRVLLLLVTGLFMSLFAVTATISAQTG	1.51
MFNRLFRGCGGKQKIMAFTLPNSVYAQKP	7.39
MRNLTKTSLLLAGLCTAAIQMVFVTHASAEES	3.32 and 3.1
MKLSVKTRQKTTVAAAAMTAKMYATAKGN	7.48
MRPVFPLILSAVLFLSCFFGARQTEASPSKR	2.1
MKKGIIRFLLVSFVLFFALLAFVVISFFSTGITGVQAAPA	2.07
MKKWMAGLFLAAAVLLCLMVPQQIQFASS	5.75

Sequence	AmyQ secretion efficiency
MKLKKRVSMFLVALTMCGGLFVEPAKAVKT	2.69
MNKLKRLSMLTVMIASVFIFSSHTLAAQY	1.95
MKVCQKSIVRFLVSLIIGTFVISVPFMANAQDD	2.65
MKKVLMAFIICLSLILSVLAAPPSGAKLESV	8.94
MKKWIYVVLVLSIAGIGGFSDHAASS	6.49
MKKTMTIGLLFMLCLAALFTIGFPAQQADAAEA	2.9
MNLRKILLSSALSLGMLVSAAPVLQTSS	5.33
MKKQIITATTAVVLGSTLFAKKRASAQSI	7.26
MILITINIITMFIAAAVISLTGTAEAAEK	4.83
MRFTKVVGFLSVLGLAAEDEEEEAQAEKA	7.84
MTKRGIQAFAGGIYLTDEDQAAAV	7.17
MSGTTSIILFSTLALAAGMTAAAAGGAGTIHAQQP	3.5
MKKWMITIAMLILAGIALFVFIRKLKSHKT	7.72
MKRLLSTLLIGIMLLTFAPSTFAKQD	1.72
MKKRLIGFLVLVPALIMSGITLIEWNKK	3.04
MKRIRIPMTLALGAALTIAPLSFTSAEEN	3.52
MIAYFGKCLLLVTIMFLGVLFGMQQYNHG	6.5
MKKVMLATALFLGLTPAGVNAADL	4.08
MKRFKKKKSFLSIIVAYPIQTNASPM	5.88
MTMLRKIIGWILLLCIIPLFAFTVIASQKEV	6.87
